We go through 13 molecules from patent US20220033520A1.

Assay [1] concerns the target human FcRn (FCGRT and beta-2 microglobulin) expressed on MDCK II cells (human) (UniProt P55899). In words: cell-based or functional assay.
Assay [2] concerns the target human FcRn complex (FCGRT and beta-2 microglobulin), recombinant, purified (human) (UniProt P55899). In words: SPR, protein L capture, pH 7.4, steady state. On the technique in general: In SPR one partner is held on a chip, and binding of the other changes the refractive index at the surface.
Assay [3] shares this target. Put plainly: SPR, protein L capture, pH 6, kinetic.
For assay [4] the target is unchanged. In words: SPR, anti-human Fab capture, pH 6, steady state.
Assay [5] deals with cyno FcRn (cynomolgus monkey) (UniProt Q8SPV9). In words: affinity for cyno FcRn at 25 C, pH 7.4.
Chain of cyno FcRn (cynomolgus monkey) (Q8SPV9 24-297 limits assumed, chain 1 of 2): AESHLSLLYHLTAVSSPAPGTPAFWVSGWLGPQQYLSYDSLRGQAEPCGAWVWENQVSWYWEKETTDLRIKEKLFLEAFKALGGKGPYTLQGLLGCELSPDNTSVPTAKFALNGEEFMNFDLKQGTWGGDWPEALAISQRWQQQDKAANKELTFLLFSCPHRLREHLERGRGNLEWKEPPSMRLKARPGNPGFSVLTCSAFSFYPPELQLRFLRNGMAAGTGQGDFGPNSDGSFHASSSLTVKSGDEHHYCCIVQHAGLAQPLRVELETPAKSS
Chain of cyno FcRn (cynomolgus monkey) (Q8SPW0 21-119 limits assumed, chain 2 of 2, further chain): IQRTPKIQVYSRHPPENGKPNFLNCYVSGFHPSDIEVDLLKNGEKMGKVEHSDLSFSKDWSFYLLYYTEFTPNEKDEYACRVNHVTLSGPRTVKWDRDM
Assay [6] addresses human FcRn complex (FCGRT and beta-2 microglobulin), recombinant, purified (human) (UniProt P55899). In words: SPR, anti-human Fab capture, pH 7.4, steady state.
The target of assay [7] is cyno FcRn (cynomolgus monkey) (UniProt Q8SPV9). In words: affinity for cyno FcRn at 25 C, pH 6.0.

Chain of human FcRn complex (FCGRT and beta-2 microglobulin), recombinant, purified (human) (P55899 24-297 limits assumed, chain 1 of 2): as the sequence (Q8SPV9 24-297 limits assumed, chain 1 of 2) above, with D39N, Q44E, S99G, G189S, N190S, M217L, T269S counted along it
Chain of human FcRn complex (FCGRT and beta-2 microglobulin), recombinant, purified (human) (P61769 21-119 limits assumed, chain 2 of 2, further chain): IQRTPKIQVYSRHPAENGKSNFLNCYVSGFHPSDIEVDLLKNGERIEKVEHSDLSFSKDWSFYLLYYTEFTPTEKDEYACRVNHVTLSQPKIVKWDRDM
Chain of human FcRn (FCGRT and beta-2 microglobulin) expressed on MDCK II cells (human) (P55899 24-365, chain 1 of 2): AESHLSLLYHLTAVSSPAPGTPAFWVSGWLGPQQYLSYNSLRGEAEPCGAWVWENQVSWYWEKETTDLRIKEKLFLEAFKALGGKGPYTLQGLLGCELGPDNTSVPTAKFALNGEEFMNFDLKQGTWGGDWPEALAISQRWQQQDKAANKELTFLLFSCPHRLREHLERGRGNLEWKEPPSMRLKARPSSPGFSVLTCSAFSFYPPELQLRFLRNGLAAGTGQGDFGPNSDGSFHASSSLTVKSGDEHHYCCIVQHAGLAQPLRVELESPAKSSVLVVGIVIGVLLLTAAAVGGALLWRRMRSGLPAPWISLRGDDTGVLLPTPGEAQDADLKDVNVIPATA
Chain of human FcRn (FCGRT and beta-2 microglobulin) expressed on MDCK II cells (human) (P61769 21-119, chain 2 of 2, further chain): as the sequence (P61769 21-119 limits assumed, chain 2 of 2, further chain) above

B1: anti-BACE1 hIgG4 antibody, Fc modification T1-IgG4 (M252Y/T307Q/N434Y) (antibody, part only; not given: anti-BACE1 variable domains, not shown: another chain or arm of the molecule)
Fc: PAPEFLGGPSVFLFPPKPKDTLYISRTPEVTCVVVDVSQEDPEVQFNWYVDGVEVHNAKTKPREEQFNSTYRVVSVLQVLHQDWLNGKEYKCKVSNKGLPSSIEKTISKAKGQPREPQVYTLPPSQEEMTKNQVSLTCLVKGFYPSDIAVEWESNGQPENNYKTTPPVLDSDGSFFLYSRLTVDKSRWQEGNVFSCSVMHEALHYHYTQKSLSLSLGK
Usually Kd stands for the constant that tells how readily two partners part at equilibrium. In general, koff refers to a measure of how fast the partners let go of each other. For orientation: kon means the rate constant with which the complex forms. Regarding B1, in assay [1], the Transcytosis Normalized to WT (normalized to WT) amounted to 80. Moreover, in assay [2], the Kd is 328 nM. In assay [3], the Kd amounted to 10.5 nM, the off-rate constant (koff) was determined as 0.00897 s⁻¹ and the kon was found to be 856000 M⁻¹ s⁻¹.

B2: anti-Abeta hIgG4 antibody, Fc modification D1 (M252Y/N434Y) (antibody, part only; not given: Anti-Abeta variable domains, not shown: another chain or arm of the molecule)
Fc: PAPEFLGGPSVFLFPPKPKDTLYISRTPEVTCVVVDVSQEDPEVQFNWYVDGVEVHNAKTKPREEQFNSTYRVVSVLTVLHQDWLNGKEYKCKVSNKGLPSSIEKTISKAKGQPREPQVYTLPPSQEEMTKNQVSLTCLVKGFYPSDIAVEWESNGQPENNYKTTPPVLDSDGSFFLYSRLTVDKSRWQEGNVFSCSVMHEALHYHYTQKSLSLSLGK
For the molecule B2, the Kd in assay [4] came to 13.1 nM; in assay [5], 571 nM; in assay [6] it was 1020 nM; in assay [7], 11.5 nM.

B3: anti-Abeta hIgG4 antibody, Fc modification T94 (M252Y/N286E/N434Y) (antibody, part only; not given: anti-Abeta variable domains, not shown: another chain or arm of the molecule)
Fc: PAPEFLGGPSVFLFPPKPKDTLYISRTPEVTCVVVDVSQEDPEVQFNWYVDGVEVHEAKTKPREEQFNSTYRVVSVLTVLHQDWLNGKEYKCKVSNKGLPSSIEKTISKAKGQPREPQVYTLPPSQEEMTKNQVSLTCLVKGFYPSDIAVEWESNGQPENNYKTTPPVLDSDGSFFLYSRLTVDKSRWQEGNVFSCSVMHEALHYHYTQKSLSLSLGK
Regarding B3, the Kd in assay [4] came out at 8.8 nM; in assay [5], 369 nM; in assay [6], 406 nM; in assay [7], 10.1 nM.

B4: anti-Abeta hIgG4 antibody, Fc modification Q4 (M252Y/Q311I/M428L/N434Y) (antibody, part only; not given: Anti-Abeta variable domains, not shown: another chain or arm of the molecule)
Fc: PAPEFLGGPSVFLFPPKPKDTLYISRTPEVTCVVVDVSQEDPEVQFNWYVDGVEVHNAKTKPREEQFNSTYRVVSVLTVLHIDWLNGKEYKCKVSNKGLPSSIEKTISKAKGQPREPQVYTLPPSQEEMTKNQVSLTCLVKGFYPSDIAVEWESNGQPENNYKTTPPVLDSDGSFFLYSRLTVDKSRWQEGNVFSCSVLHEALHYHYTQKSLSLSLGK
For B4, the Kd in assay [4] came to 9.2 nM; in assay [6] it was 486 nM.

B5: anti-Abeta hIgG4 antibody, Fc modification T3 (M252Y/Q311I/N434Y) (antibody, part only; not given: anti-Abeta variable domains, not shown: another chain or arm of the molecule)
Fc: PAPEFLGGPSVFLFPPKPKDTLYISRTPEVTCVVVDVSQEDPEVQFNWYVDGVEVHNAKTKPREEQFNSTYRVVSVLTVLHIDWLNGKEYKCKVSNKGLPSSIEKTISKAKGQPREPQVYTLPPSQEEMTKNQVSLTCLVKGFYPSDIAVEWESNGQPENNYKTTPPVLDSDGSFFLYSRLTVDKSRWQEGNVFSCSVMHEALHYHYTQKSLSLSLGK
With B5, the dissociation constant (Kd) was found to be 9.2 nM in assay [4] and 334 nM in assay [6].

B6: anti-BACE1 hIgG4 antibody, Fc modification T3 (M252Y/Q311I/N434Y) (antibody, part only; not given: Anti-BACE1 variable domains, not shown: another chain or arm of the molecule)
Fc: PAPEFLGGPSVFLFPPKPKDTLYISRTPEVTCVVVDVSQEDPEVQFNWYVDGVEVHNAKTKPREEQFNSTYRVVSVLTVLHIDWLNGKEYKCKVSNKGLPSSIEKTISKAKGQPREPQVYTLPPSQEEMTKNQVSLTCLVKGFYPSDIAVEWESNGQPENNYKTTPPVLDSDGSFFLYSRLTVDKSRWQEGNVFSCSVMHEALHYHYTQKSLSLSLGK
As to B6, the Kd in assay [4] was found to be 7.4 nM; in assay [6], 263 nM.

B7: anti-Abeta hIgG4 antibody, Fc modification Q95 (M252Y/T307Q/Q311A/N434Y) (antibody, part only; not given: anti-Abeta variable domains, not shown: another chain or arm of the molecule)
Fc: PAPEFLGGPSVFLFPPKPKDTLYISRTPEVTCVVVDVSQEDPEVQFNWYVDGVEVHNAKTKPREEQFNSTYRVVSVLQVLHADWLNGKEYKCKVSNKGLPSSIEKTISKAKGQPREPQVYTLPPSQEEMTKNQVSLTCLVKGFYPSDIAVEWESNGQPENNYKTTPPVLDSDGSFFLYSRLTVDKSRWQEGNVFSCSVMHEALHYHYTQKSLSLSLGK
With B7, the Kd in assay [4] turned out to be 6.5 nM; in assay [5], 215 nM; in assay [6], 284 nM; in assay [7] it was 8.2 nM.

B8: anti-BACE1 hIgG4 antibody, Fc modification Q95 (M252Y/T307Q/Q311A/N434Y) (antibody, part only; not given: Anti-BACE1 variable domains, not shown: another chain or arm of the molecule)
Fc: PAPEFLGGPSVFLFPPKPKDTLYISRTPEVTCVVVDVSQEDPEVQFNWYVDGVEVHNAKTKPREEQFNSTYRVVSVLQVLHADWLNGKEYKCKVSNKGLPSSIEKTISKAKGQPREPQVYTLPPSQEEMTKNQVSLTCLVKGFYPSDIAVEWESNGQPENNYKTTPPVLDSDGSFFLYSRLTVDKSRWQEGNVFSCSVMHEALHYHYTQKSLSLSLGK
Take B8: the Kd in assay [4] was 5.9 nM; in assay [6], 202 nM.

B9: anti-Abeta hIgG4 antibody, Fc modification Q6 (M252Y/M428L/N434Y/Y436I) (antibody, part only; not given: anti-Abeta variable domains, not shown: another chain or arm of the molecule)
Fc: PAPEFLGGPSVFLFPPKPKDTLYISRTPEVTCVVVDVSQEDPEVQFNWYVDGVEVHNAKTKPREEQFNSTYRVVSVLTVLHQDWLNGKEYKCKVSNKGLPSSIEKTISKAKGQPREPQVYTLPPSQEEMTKNQVSLTCLVKGFYPSDIAVEWESNGQPENNYKTTPPVLDSDGSFFLYSRLTVDKSRWQEGNVFSCSVLHEALHYHITQKSLSLSLGK
Take B9: the dissociation constant Kd in assay [4] was 8 nM; in assay [6] it was 285 nM.

B10: anti-BACE1 hIgG4 antibody, Fc modification Q6 (M252Y/M428L/N434Y/Y436I) (antibody, part only; not given: anti-BACE1 variable domains, not shown: another chain or arm of the molecule)
Fc: PAPEFLGGPSVFLFPPKPKDTLYISRTPEVTCVVVDVSQEDPEVQFNWYVDGVEVHNAKTKPREEQFNSTYRVVSVLTVLHQDWLNGKEYKCKVSNKGLPSSIEKTISKAKGQPREPQVYTLPPSQEEMTKNQVSLTCLVKGFYPSDIAVEWESNGQPENNYKTTPPVLDSDGSFFLYSRLTVDKSRWQEGNVFSCSVLHEALHYHITQKSLSLSLGK
Take B10: the Kd in assay [4] was 6.3 nM; in assay [6], 215 nM.

B11: anti-BACE1 hIgG4 antibody, Fc modification Q7 (M252Y/Q311A/N434Y/Y436I) (antibody, part only; not given: anti-BACE1 variable domains, not shown: another chain or arm of the molecule)
Fc: PAPEFLGGPSVFLFPPKPKDTLYISRTPEVTCVVVDVSQEDPEVQFNWYVDGVEVHNAKTKPREEQFNSTYRVVSVLTVLHADWLNGKEYKCKVSNKGLPSSIEKTISKAKGQPREPQVYTLPPSQEEMTKNQVSLTCLVKGFYPSDIAVEWESNGQPENNYKTTPPVLDSDGSFFLYSRLTVDKSRWQEGNVFSCSVMHEALHYHITQKSLSLSLGK
For B11, the Kd in assay [6] was 230 nM.

B12: anti-BACE1 hIgG4 antibody, Fc modification T94 (M252Y/N286E/N434Y) (antibody, part only; not given: Anti-BACE1 variable domains, not shown: another chain or arm of the molecule)
Fc: PAPEFLGGPSVFLFPPKPKDTLYISRTPEVTCVVVDVSQEDPEVQFNWYVDGVEVHEAKTKPREEQFNSTYRVVSVLTVLHQDWLNGKEYKCKVSNKGLPSSIEKTISKAKGQPREPQVYTLPPSQEEMTKNQVSLTCLVKGFYPSDIAVEWESNGQPENNYKTTPPVLDSDGSFFLYSRLTVDKSRWQEGNVFSCSVMHEALHYHYTQKSLSLSLGK
With B12, the Kd in assay [4] was found to be 7.04 nM; in assay [6], 305 nM.

B13: anti-Abeta hIgG4 antibody, Fc modification Q7 (M252Y/Q311A/N434Y/Y436I) (antibody, part only; not given: anti-Abeta variable domains, not shown: another chain or arm of the molecule)
Fc: PAPEFLGGPSVFLFPPKPKDTLYISRTPEVTCVVVDVSQEDPEVQFNWYVDGVEVHNAKTKPREEQFNSTYRVVSVLTVLHADWLNGKEYKCKVSNKGLPSSIEKTISKAKGQPREPQVYTLPPSQEEMTKNQVSLTCLVKGFYPSDIAVEWESNGQPENNYKTTPPVLDSDGSFFLYSRLTVDKSRWQEGNVFSCSVMHEALHYHITQKSLSLSLGK
With B13, the Kd in assay [4] was 7.4 nM; in assay [6], 273 nM.
